# Results as given in the nanobody polyreactivity screen of Harvey et al. (2022).
# Test: yeast display, Sf9 membrane polyspecificity reagent, FACS + sequencing; frameworks hold sequencing errors
# Summary of the method: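 Using colony PCR, genes from sorted yeast display clones were amplified, then sequenced on MiSeq at 2 × 250 and filtered by CDR length. The clones had been stained with 10% biotinylated, detergent-solubilized Sf9 membrane reagent for 1 hour at 4 °C and sorted by FACS into low and high (top ~1%) gates on anti-HA and streptavidin fluorescence. Polyreactivity labels come from the gate of origin.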
row,Sequence,polyreactivity (PSR sort gate)
1,QVQLQESVGGLVQACGSLRLSCAASGYIFSHQYMGWYRQAPGKERELVASISPGATTNYADSVKGRFTISRDNAKNTVYLQMNSLKPEDTAVYYYAVYQILDRRLSYWGQGTQVTVSC,high polyreactivity
2,QVQLQESVGGLVQAGGSLRLSCAASGNIFPTDRMGWYRQAPGKELEFVATISHGGSTNYADSVKGRFTISRDNAKNTVYLQMNSLKPEDTAVYYCAVWSLGRWRHYYWGQGTQVTVRS,low polyreactivity
3,QVQLQESVGGLVQAGGSLRLSCPASGSIFKVVDMVLYRQAPAKEREFVATIGVGGNTYYADSVKGRFTISRDNAKNTVYLQMNSLKPEDTAVYFYAVVLGTSYRYTYWGQGTQVTVSS,low polyreactivity
4,QVQLQESVGGLVQAGGTLRLSCAGRGNIYTHQLYMGSYRQAPGKEIDFVAAINFGASPYYADSVKGRNTISRDNAKNTVYLLMNSLKPEDTAVYYCAADSAFYDEYQEDYWGQGTQVTLSS,low polyreactivity
5,QVQLQESVVGLEQAGGSLRLSCAASGNIFPTDRMGWYRQAPGKELEFVATISHGGSTNYADSVKGRFTISRVNAKNTVYLQLNSLKPEDTAVYYCAVWSLGRWRHYYWGQGTQVTVSS,low polyreactivity
6,QVQLQETGGGLVQAGGSLRQSCAASRSISPWSYMGRYRQAPGKEREFVASINAGTNTYYADSAKGRITISRDNAKNTVYLQMNSLKPEDTAAYYCAARYWNDYYFPYWGQGTEVTVSS,low polyreactivity
7,QVQLQETGGGLVQVGGSQRLSCAASGNIFYNYAMGWYRHAQGKEREFDATINHGTSINDADSVKGRFTISRDNAKNTVYLQMNSLTPEDTAVYYCAADLSWTDNLFYWGQGTQETVSS,low polyreactivity
8,QVQLQGSGGGLAQAGDSLRLSCAASGTIFSEYNNGLVSPGAGQRTRTCCRYWCWGNTYYADSAKGRFTTSRDNAKNTVYLQKNSLKPEDTAVYYCAFNRPYPSRHIYRGQGTQVTVSS,high polyreactivity
9,QVQLQGSGGGLAQAGDSLRLSSEASGTIFSEYNNGLVSPGAGQRTRTCCRYWCWGNTYYPDSAKGRFTTSLDNAKNTVYLQKNSLKPEDTEVYYCAFNRPYPSRHIYRGQGTQVTVSS,high polyreactivity
10,QVQLQVSGGDLVQAGGSLRLSCAASGTIYGLTAMGWYRLAPGKEREFVAAITDGGNTNYADSVKGRFTISRDNAINTVYLQMISLKPEDTAVYYCAVLFSDDAYYAYWGQGTQVTVSS,low polyreactivity
11,QVQLQVSGGGLVNAGGSLRLSCAASGNISPRDAMGWYLQAPGEERDLVASNAYSAITYYADGVTGRSTISRDNAKNTEYLQMNSLKPEDTEVYYCAVYQFTYPVFPAYWGQGTQVTVSS,low polyreactivity
12,QVQLVASGGGLVQAGGSHRLSCAASGRIFYYYAMGWYRQAPGKERELVASINSGGSTYYADSVKGPFTISRDNAKHTVYFQMNSLKPEDTACYYCAAGFQLVKGSLSGRAAYYYWGQGTQVTVSS,high polyreactivity
13,QVQLVASGGGLVQAGGSLRLSCAASGRIFYAYAMGWYRQAPGKERELVAAITISASSTYYADSVKGRFTFSRDNAKNTVYLQMNSLKPEETAVFYCAAAYRRPWWYSYRYGYWGQGTQVTVSS,high polyreactivity
14,QVQLVASGGGLVQAGGSLRLSCAASGSIFARYALGWYSQAPGKEREWVAALRWSGGRTYYADSVKGRFTISRDNAKNTVYLQMNSLKPEDTAVDYCNAVIHRLGKTYGTNRVDYWGQGTQVTVSS,high polyreactivity
15,QVQLVASGGGLVQAGGSLRLSCAASGSTFGSNAMGWYRQAPGKERELVAPINSGDSTSYADSVKGRFTISRDNAKNTVYLQMNSLKPEDTAVYYCATRYYTFVWRHDYWGQGTQVTVSS,low polyreactivity
16,QVQLVASGGGLVQAGGSLRLSCAASGSTFPRYAMGWYRQAPWKERELVAAITTSGGSTYYADSVKGRFTISRDNAKNTVYLQMNRLKPEDTAVYYCAADYCYYLDAGYYWGQGTQVTVSS,low polyreactivity
17,QVQLVASGGGLVQAGGSLRLSCAASGYTLFRNAMGWYRQAPGKERELVAAISRSGARTYYADSVKGRFTISRDNAKNTVYLQMNSLLPEDTAVYYCAAVIKWTKDDYWGQGTQVTVSS,high polyreactivity
18,QVQLVASGVGLVQAVGSLRLSCAASGITFQYYTMGWYRQAPGKERELVAAINWSGGSTYYADSVKGRFTISRDNAKNTVYLQMNSLKPEDTAVYYCNAVRFVEHDYWGQGTQVTVSS,high polyreactivity
19,QVQLVDSAGGLVQAGGTLRLSCADSGFTCSYYAMGWYRQAPGTERELVAAITSGGSTDYADSVKGRFTISRDNEKNTFYLQMHSLKPVDTAVFYCKITPYYAVFYYWGPGTQVTVSS,high polyreactivity
20,QVQLVDSCGGLVQAGGSLRLSFAASGRIYGPYAMGWYRQAPGKERELVAAISFSGSGTYYADSVKGRFTISRDNAKNTVYLQMNSLKPEDTAVYYCAADRWAHTHRLGYWGQGTQVTVSS,low polyreactivity
21,QVQLVDSEVGLVQAGGSHRLSCSASARTFGRYAMGWYRQAPGKERELVATIRWRVGSTYYADSVKGSFTISRDNAKNTVYLQMNSLKPEDTAVFYCAARRYSSGLTDDYWGQGTQVTVSS,high polyreactivity
22,QVQLVDSGGALVQAGGSLRLRCAASGSTFFPNAKGWYRQAPGKERELVATIKYADSVKGRFTISRYNAKNTVYLQMNSLKPEDTAVYYCAGGGRVRYDYWGQGTQVTVSS,low polyreactivity

row,Sequence,polyreactivity (PSR sort gate)
1,QVQLVDSGGGIVQAGGSLRLSCAASGSTFGRKVMGWYRQAPGKERELVAAISFRGGSTYYADSVKGRFTISRDNAKNTVYLQMNSLKPEDTAVYYCARDYPTDAYDYWGQGTQVTVSS,low polyreactivity
2,QVQLVDSGGGLDQAGGSLRLSCAASGYTFWLYAMGWYRQAPGKERELVAAISRGGITNYADSVKGRFTISRDNAKNTVYLQMNSLKPEDTAVYYCAAEYRGRGWRYGYDDWGQGTQVTVSS,high polyreactivity
3,QVQLVDSGGGLLQAGGSLRLSCAASGRIFVYNAMGWYRQAPGKERELVAAITRGGSTYYADSVKGRFTISRDNAKNTVDLQMNSLKPEDPAGYYCAADYAWVSIYDNVPSAPGYDDWGQGTQGTVSS,low polyreactivity
4,QVQLVDSGGGLLQAGGSLRLSFAASGRTLNHYVMGWYRQAPGKERELVAAISSGGSTYYADSVKGRFTISRDNAKNTVYLQMNSLKPEDTAVYYCNAGVVGDYPYWGLMDYWGQGTKVTVSS,high polyreactivity
5,QVQLVDSGGGLVQAGASLRLSCAASGRIITAYYAMGWYRQAPGKERELVASISSSGTSTYADSVKGRFTISRDYAKNTVYLQMKSLKPEDTAVYYCATRKQRTRRYDYGYWGQGTQVTVSS,low polyreactivity
6,QVQLVDSGGGLVQAGGILRLSCAASGRIFYYNTMGWSRQAPGKERELVARITYSGGRTYYADSVKGRFTISRDNAKNTVYLQMNSLKPEDTAVYYCAARRRTFYATSSAINGYDYWGQGTQVTVSS,high polyreactivity
7,QVQLVDSGGGLVQAGGRLRLSCAASGRTFRTNAMGWYRQAPGKERELVAAISRTGRTNYADSVKGRFTISRDNAKNTVYLQMNSLKPEDTAVYYCAADRVGWSGYRGDYWGQGTQVTVSS,high polyreactivity
8,QVQLVDSGGGLVQAGGSHRLSCAASGSTFYGNLMGWYRQAPGRERELVAAISGGCSTNYADSVKGRFTISRDNEKNTVYLQLNSLKPEDTAVYYCAARGVIRVGNAARYVAGYYWGQGTQVTVSS,high polyreactivity
9,QVQLVDSGGGLVQAGGSLLLICAASGSTIPRNAMGWYRQAPGKERELVAAITSGGSTNYADSVKGRFTISRDNAKNTVYLQMNSLKPEDTAVYYCAADEQVNTQYVVWGDYWGHGTQVTVSS,low polyreactivity
10,QVQLVDSGGGLVQAGGSLLLSCAASGFTFTIYAMGWNRQAPGKERELVATISGRAGRTYYADSVKGRFTISRDNAKNTVYLQMNSLKPEDTAVYYCNAGQWRYPGLYYYWGQGTQVTVSS,high polyreactivity
11,QVQLVDSGGGLVQAGGSLLLSCAASGHTLYRNAMGWYRQAPGKERELVAAITSRGGSTFYADSVKGRFTISRDNAKNSVYLQMNCLQPEDTAVYYCNTARGTAPAHDYWGQGTQVTVSS,low polyreactivity
12,QVQLVDSGGGLVQAGGSLPLICADAGSTFNSYAMGRYRQAPGKKRELVAAIRWIGDSTYADSVKGRFTISRDNATNTVYLQMNSLKPVDTAVYYCAATDVSWGVDYWGQCTQVTVSS,low polyreactivity
13,QVQLVDSGGGLVQAGGSLRLICAASGLIFYKYAMGWYRQAPGKERELVASISTGGGSTYYADSVKGRFTISRDNAKNTVYLQMNSLQPEDTAVYYCAARWWRRFRGSHSLYDYWGQGTEVTVSS,high polyreactivity
14,QVQLVDSGGGLVQAGGSLRLRCAASGRTFTPYAMGWYRQAPGQERELVATISSGTSTNYADSVKGRFTISRDNAKNTVYLQMNSLKPEDTAVYDCAADGYTYKFDYWGQGTQVTVSS,low polyreactivity
15,QVQLVDSGGGLVQAGGSLRLRCADSGSIFRDNAMGWYRQAPGKERELVADINYRDGDTFYADSVKGRFTISRDNAKNTVYLLMNSLKPEDNAVYYCAAEWDYPWWRIVAVYGYEYWGQGTQVTVSS,low polyreactivity
16,QVQLVDSGGGLVQAGGSLRLSAASGSTLSGNTMGWYRQAPGKERELVAAINDSGGSTYYADSVKGRFTISRDNAKNTVYLQMNSLKPEDTAVYYCAAETGYAFDYWGQGTQVTVSS,low polyreactivity
17,QVQLVDSGGGLVQAGGSLRLSCAASGFIFGYYAMGWYRPAPGKERELVAAISQSTGSTYYADSVKGRFTISRDNAKNTVYLQMNSLKPEDTAVYYCNAEGPEFTTWGYVYWDWGYGYWGQGTQVTVSS,low polyreactivity
18,QVQLVDSGGGLVQAGGSLRLSCAASGFIFPYYAMGWYRQAPGKERELVAAITRGGRTYYADSVKGRFTISRDNAKNTVYLQMNSLKPEDTAVYYCAARAGLDGEMDYWGQGTQVTVSS,high polyreactivity
19,QVQLVDSGGGLVQAGGSLRLSCAASGFIFSAYTMGWYRQAPGKERELVAAISGSGVGTYYADSVKGRFTISRDNAKNTVYLQMNSLKPEDTAVYYCNAADYTAYYWEYYYWGQGTQVTVSS,low polyreactivity
20,QVQLVDSGGGLVQAGGSLRLSCAASGFKFGTYAMGWYRQAPGKERELVAGISRRSGSTIYADSVKGRFTISRDNAKNTVYLQMNSLKPEDTAVYYCNVDRPDATWSWWEYGYWGQGTQVTVSS,high polyreactivity
21,QVQLVDSGGGLVQAGGSLRLSCAASGFTFRYYAMGWYRKAPGNERELVAGISWSGSRTYYADSVKGRFTISRDNAKNTVYLQMNSLKPEDTAVYFCAKVNSYGPVPDRYDYWGQGTQVTVSS,high polyreactivity
